# Laboratory results: doi:10.1101/2023.06.07.543977
# T1: mKu (mycobacterial Ku) (Mycobacterium tuberculosis, UniProt P9WKD9 1-273)
# T1 sequence: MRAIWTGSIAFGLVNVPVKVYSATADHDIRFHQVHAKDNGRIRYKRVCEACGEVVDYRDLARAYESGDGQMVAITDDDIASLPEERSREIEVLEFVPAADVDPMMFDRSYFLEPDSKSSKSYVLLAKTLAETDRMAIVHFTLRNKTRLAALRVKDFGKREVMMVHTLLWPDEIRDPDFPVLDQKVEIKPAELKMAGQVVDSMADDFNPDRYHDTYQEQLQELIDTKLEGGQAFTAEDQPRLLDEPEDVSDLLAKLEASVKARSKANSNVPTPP
# Target: T1, mKu (mycobacterial Ku)
# Assay: SPR
row,Binder,apparent K (half saturation) [nM]
1,20 bp dsDNA (dsDNA) DNA 1: GTCGTAGCCCACCTGACCGT DNA 2: ACGGTCAGGTGGGCTACGAC,10.8 ± 2.47
2,29 bp dsDNA (dsDNA) DNA 1: CGAACCAGCTGGCGCATAGCCGCGCTATC DNA 2: GATAGCGCGGCTATGCGCCAGCTGGTTCG,17.9 ± 4.58
